The values that follow are results of earlier work, collected in article PMC8070256, “Feasibility of Developing Radiotracers for MDM2: Synthesis and Preliminary Evaluation of an ^18F-Labeled Analogue of the MDM2 Inhibitor SP-141” (Pharmaceuticals, 2021).

The series has as its target MDM2 (Homo sapiens) (UniProt Q00987).

Chain of MDM2 (Homo sapiens) (Q00987 whole entry): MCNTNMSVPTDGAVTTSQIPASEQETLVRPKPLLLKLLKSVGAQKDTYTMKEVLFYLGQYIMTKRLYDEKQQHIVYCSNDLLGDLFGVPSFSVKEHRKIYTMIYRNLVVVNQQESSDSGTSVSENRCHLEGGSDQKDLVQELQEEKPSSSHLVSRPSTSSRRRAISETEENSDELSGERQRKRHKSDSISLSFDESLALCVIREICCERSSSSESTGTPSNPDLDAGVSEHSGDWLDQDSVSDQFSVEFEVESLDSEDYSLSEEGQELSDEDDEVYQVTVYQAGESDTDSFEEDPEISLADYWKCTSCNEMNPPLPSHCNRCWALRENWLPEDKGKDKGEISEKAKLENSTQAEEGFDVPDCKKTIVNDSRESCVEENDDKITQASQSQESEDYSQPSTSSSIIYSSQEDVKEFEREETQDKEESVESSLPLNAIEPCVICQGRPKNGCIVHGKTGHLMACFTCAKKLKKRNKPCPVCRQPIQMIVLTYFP

For the substance p53 peptide (from UniProt P04637), the Ki (usually a measure of affinity in units of concentration, obtained from inhibition or displacement) is 1.1 µM.
